Conditions: Saccharomyces cerevisiae (strain ATCC 204508 / S288c), 25 °C, GdnHCl, CD, NaCl 40 mM
[1] = pH 4, acetate-HCl 20 mM, structure 1YCC
[2] = pH 5, acetate-HCl 20 mM, structure 1YCC
[3] = pH 5.8, MES 20 mM, structure 1YCC
[4] = pH 6.12, MES 20 mM, structure 1YCC
[5] = pH 6.5, MES 20 mM, structure 1YCC
[6] = pH 7.2, Tris 20 mM, structure 1YCC
[7] = pH 7.5, Tris 20 mM, structure 1YCC

Chain of Cytochrome c isoform 1 K79H, P00044 (P00044 whole entry K79H, canonical isoform): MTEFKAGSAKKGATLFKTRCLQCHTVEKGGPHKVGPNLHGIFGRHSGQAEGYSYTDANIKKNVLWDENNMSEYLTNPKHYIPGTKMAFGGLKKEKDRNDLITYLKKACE
Chain of Cytochrome c isoform 1 wild type, P00044 (P00044 whole entry, canonical isoform): as the sequence (P00044 whole entry K79H, canonical isoform) above, with H79K counted along it

## Cytochrome c isoform 1 K79H, P00044
[1]
  denaturant m value: 3.33 kcal/mol/M
  denaturant midpoint (higher = more stable): 0.51 M
  unfolding free energy: 7.15 kJ/mol
[2]
  denaturant m value: 3.67 kcal/mol/M
  denaturant midpoint (higher = more stable): 0.98 M
  unfolding free energy: 15.1 kJ/mol
[3]
  denaturant m value: 3.54 kcal/mol/M
  denaturant midpoint (higher = more stable): 1.05 M
  unfolding free energy: 15.5 kJ/mol
[4]
  denaturant m value: 3.31 kcal/mol/M
  denaturant midpoint (higher = more stable): 1.09 M
  unfolding free energy: 15.1 kJ/mol
[5]
  denaturant m value: 3.14 kcal/mol/M
  denaturant midpoint (higher = more stable): 1.12 M
  unfolding free energy: 14.7 kJ/mol
[6]
  denaturant m value: 2.97 kcal/mol/M
  denaturant midpoint (higher = more stable): 1.15 M
  unfolding free energy: 14.3 kJ/mol
[7]
  denaturant m value: 3.2 kcal/mol/M
  denaturant midpoint (higher = more stable): 1.15 M
  unfolding free energy: 15.4 kJ/mol

## Cytochrome c isoform 1 wild type, P00044
pH 4, acetate-HCl 20 mM
  denaturant m value: 4.1 kcal/mol/M
  denaturant midpoint (higher = more stable): 0.66 M
  unfolding free energy: 11.4 kJ/mol
pH 4.5, acetate-HCl 20 mM
  denaturant m value: 4.28 kcal/mol/M
  denaturant midpoint (higher = more stable): 0.96 M
  unfolding free energy: 17.2 kJ/mol
pH 5, acetate-HCl 20 mM
  denaturant m value: 4.42 kcal/mol/M
  denaturant midpoint (higher = more stable): 1.08 M
  unfolding free energy: 20 kJ/mol
pH 5.8, MES 20 mM
  denaturant m value: 4.84 kcal/mol/M
  denaturant midpoint (higher = more stable): 1.09 M
  unfolding free energy: 22.1 kJ/mol
pH 6.12, MES 20 mM
  denaturant m value: 4.86 kcal/mol/M
  denaturant midpoint (higher = more stable): 1.16 M
  unfolding free energy: 23.7 kJ/mol
pH 6.5, MES 20 mM
  denaturant m value: 4.45 kcal/mol/M
  denaturant midpoint (higher = more stable): 1.23 M
  unfolding free energy: 22.8 kJ/mol
pH 7.2, Tris 20 mM
  denaturant m value: 4.31 kcal/mol/M
  denaturant midpoint (higher = more stable): 1.09 M
  unfolding free energy: 19.6 kJ/mol
pH 7.5, Tris 20 mM
  denaturant m value: 4.92 kcal/mol/M
  denaturant midpoint (higher = more stable): 1.15 M
  unfolding free energy: 23.7 kJ/mol

From FireProtDB (doi:10.1021/bi981698k)
